Test results reported in article PMC6196502 (Proceedings of the National Academy of Sciences of the …, 2018).
Numbering of substitutions follows the chain as printed. Numbers in names are those of the source.

B1: segmentally labeled mCherry-hnRNPA2-LC D290V (ligated construct, G280C) (domain or fragment, human, UniProt P22626-2 181-341, looked up)
chain: MQEVQSSRSGRGGNFGFGDSRGGGGNFGPGPGSNFRGGSDGYGSGRGFGDGYNGYGGGPGGGNFGGSPGYGGGRGGYGGGGPGYGNQGGGYGGGYDNYGCGNYGSGNYNVFGNYNQQPSNYGPMKSGNFGGSRNMGGPYGGGNYGPGGSGGSGGYGGRSRY
B2: GFP-hnRNPA2-LC D290V (domain or fragment, human, UniProt P22626-2 181-341, looked up)
chain: B1 chain with C100G

Key:
solid-state NMR = biological target: the molecule itself; assay: solid-state NMR
[1] = biological target: the molecule itself; assay: urea-driven polymer dissolution

| Protein | binding result (solid-state NMR) | binding result [1] |
| --- | --- | --- |
| B1 | binds |  |
| B2 |  | binds |
